According to patent US20240141072A1 (published 2024):

T1: biotinylated human DLL3 protein expressed as a human IgG1 fusion protein (human, UniProt Q9NYJ7 27-492, limits assumed, biotinylated)
T1 sequence: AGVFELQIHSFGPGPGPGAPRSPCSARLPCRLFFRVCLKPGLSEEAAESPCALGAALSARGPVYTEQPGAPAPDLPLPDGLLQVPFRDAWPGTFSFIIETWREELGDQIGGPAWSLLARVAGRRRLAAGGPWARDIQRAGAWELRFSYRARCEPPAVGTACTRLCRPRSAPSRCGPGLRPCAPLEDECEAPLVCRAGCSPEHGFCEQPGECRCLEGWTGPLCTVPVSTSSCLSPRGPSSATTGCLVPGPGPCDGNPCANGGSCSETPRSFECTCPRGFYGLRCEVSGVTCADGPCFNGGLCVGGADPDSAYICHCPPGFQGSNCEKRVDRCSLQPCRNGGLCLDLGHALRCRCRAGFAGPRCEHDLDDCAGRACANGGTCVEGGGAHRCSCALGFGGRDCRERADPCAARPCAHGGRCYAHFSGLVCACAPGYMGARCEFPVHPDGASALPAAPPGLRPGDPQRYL


Molecular target: T1, biotinylated human DLL3 protein …
Assay: Octet BLI, single 50 nM
Protocol: Using the conditioned medium with known concentrations of the anti-DLL3 trispecific proteins, the binding affinities of the anti-DLL3 trispecific proteins toward human DLL3 protein were measured using a method where biotinylated version of human DLL3 protein were expressed as a human IgG1 fusion protein, and the binding affinity measurement was carried out in an Octet instrument with streptavidin tips.

Binder	Kd [nM]
1F011 anti-DLL3 trispecific protein (other, not shown: linker 1808, anti-albumin sdAb, linker 1808, anti-CD3 fragment, His6 1819) EVQLVESGGGLVQPGGSLTLSCVASGSTSSINAIGWYRRAPGKQRELVAGISSDGSKVYADSVKGRFTISRDNAKNSVYLQMNSLRAEDTAVYYCYYFRTVKGSSMRYWGQGTLVTVSS	5
1G05 anti-DLL3 trispecific protein (other, not shown: linker 1808, anti-albumin sdAb, linker 1808, anti-CD3 fragment, His6 1819) EVQLVESGGGLVQPGGSLTLSCVASGSTSSINAIGWYRRAPGKQRELVAGISSDGSKYYADSVKGRFTISRDNAKNSVYLQMNSLRAEDTAVYYCYYFRTVTGSSMRYWGQGTLVTVSS	14
1G011 anti-DLL3 trispecific protein (other, not shown: linker 1808, anti-albumin sdAb, linker 1808, anti-CD3 fragment, His6 1819) EVQLVESGGGLVQPGGSLTLSCVASGSTSSINAMAWYRRAPGKQRELVAGISSDGSKVYADSVKGRFTISRDNAKNSVYLQMNSLRAEDTAVYYCYYFKTVSGSSMRYWGQGTLVTVSS	6.8
1H07 anti-DLL3 trispecific protein (other, not shown: linker 1808, anti-albumin sdAb, linker 1808, anti-CD3 fragment, His6 1819) EVQLVESGGGLVQPGGSLTLSCVASGSTSSINAFGWYRRAPGKQRELVAGISSDGSKVYSDSVKGRFTISRDNAKNSVYLQMNSLRAEDTAVYYCYYFRTVSGSSMRYWGQGTLVTVSS	6.2
1F012 anti-DLL3 trispecific protein (other, not shown: linker 1808, anti-albumin sdAb, linker 1808, anti-CD3 fragment, His6 1819) EVQLVESGGGLVQPGGSLTLSCVASGLTSSINAMGWYRRAPGKQRELVAGISSDGSKVYQDSVKGRFTISRDNAKNSVYLQMNSLRAEDTAVYYCYYFRTNSGSSMRYWGQGTLVTVSS	5.8
1H06 anti-DLL3 trispecific protein (other, not shown: linker 1808, anti-albumin sdAb, linker 1808, anti-CD3 fragment, His6 1819) EVQLVESGGGLVQPGGSLTLSCVASGTTSSINAMGWYRRAPGKQRELVAGISSDGSKVYVDSVKGRFTISRDNAKNSVYLQMNSLRAEDTAVYYCYYFRFLSGSSMRYWGQGTLVTVSS	14
1G09 anti-DLL3 trispecific protein (other, not shown: linker 1808, anti-albumin sdAb, linker 1808, anti-CD3 fragment, His6 1819) EVQLVESGGGLVQPGGSLTLSCVASGSTSSINAMGWYRRAPGKQRELVAGISSDGSKVYADSVKGRFTISRDNAKNSVYLQMNSLRAEDTAVYYCYYFRTVSKSSMRYWGQGTLVTVSS	10
1G04 anti-DLL3 trispecific protein (other, not shown: linker 1808, anti-albumin sdAb, linker 1808, anti-CD3 fragment, His6 1819) EVQLVESGGGLVQPGGSLTLSCVASGSTSSTNAMGWYRRAPGKQRELVAGISSDGSKVLADSVKGRFTISRDNAKNSVYLQMNSLRAEDTAVYYCYYFRTVNLSSMRYWGQGTLVTVSS	11
1H02 anti-DLL3 trispecific protein (other, not shown: linker 1808, anti-albumin sdAb, linker 1808, anti-CD3 fragment, His6 1819) EVQLVESGGGLVQPGGSLTLSCVASGSKSSINAMGWYRRAPGKQRELAAGISSDGSKVYAQSVKGRFTISRDNAKNSVYLQMNSLRAEDTAVYYCYYFRTSSGSSMRYWGQGTLVTVSS	10
1H01 anti-DLL3 trispecific protein (other, not shown: linker 1808, anti-albumin sdAb, linker 1808, anti-CD3 fragment, His6 1819) EVQLVESGGGLVQPGGSLTLSCVASGSTSSINAMAWYRRAPGKQRELAAGISSDNSKVYADSVKGRFTISRDNAKNSVYLQMNSLRAEDTAVYYCYYFRTRSGSSMRYWGQGTLVTVSS	5.7
1G06 anti-DLL3 trispecific protein (other, not shown: linker 1808, anti-albumin sdAb, linker 1808, anti-CD3 fragment, His6 1819) EVQLVESGGGLVQPGGSLTLSCVASGSTSSINAIGWYRRAPGKQRELVAGISSDGSKVYAVSVKGRFTISRDNAKNSVYLQMNSLRAEDTAVYYCYYFRKVSGSSARYWGQGTLVTVSS	26
1H08 anti-DLL3 trispecific protein (other, not shown: linker 1808, anti-albumin sdAb, linker 1808, anti-CD3 fragment, His6 1819) EVQLVESGGGLVQPGGSLTLSCVASGSTFSINAMGWYRRAPGKQRELVAGISSDGSKVLADSVKGRFTISRDNAKNSVYLQMNSLRAEDTAVYYCYYFRLVSGSSMRYWGQGTLVTVSS	17
1G01 anti-DLL3 trispecific protein (other, not shown: linker 1808, anti-albumin sdAb, linker 1808, anti-CD3 fragment, His6 1819) EVQLVESGGGLVQPGGSLTLSCVASGSTSSINAMAWYRRAPGKQRELVAGISSDGSKVYAESVKGRFTISRDNAKNSVYLQMNSLRAEDTAVYYCYYFRTVSGASMRYWGQGTLVTVSS	6.6
1G07 anti-DLL3 trispecific protein (other, not shown: linker 1808, anti-albumin sdAb, linker 1808, anti-CD3 fragment, His6 1819) EVQLVESGGGLVQPGGSLTLSCVASGSTSSINAMGWYRRAPGKQRELVAGISSDGSKVVADSVKGRFTISRDNAKNSVYLQMNSLRAEDTAVYYCYYFRTYSGSSMRYWGQGTLVTVSS	8.3
